Laboratory results taken from the supplement of paper PMC10724198.
± gives the standard deviation of the averaged measurements.

Key:
Saccharomyces cerevisiae [1] = test: protein stability index of tFT-peptide fusion (C-terminal peptide) (PSI (0-1 scale)); higher = more stable (slower turnover)
Protocol: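 MPS profiling in S. cerevisiae of the tFT-X12 degron library: putative degron peptides plus stable controls, 12 aa, fused to the C-terminus of a sfGFP-mCherry timer. Cells are FACS-sorted into 8 mCherry/sfGFP bins and deep-sequenced. PSI runs from 0 (unstable) to 1 (stable). Backgrounds are wild type, das1Δ and doa10Δ at 30 °C, and wild type, das1Δ, cdc34-1 and cdc53-1 at 37 °C; 2-3 technical replicates each.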

Saccharomyces cerevisiae [2] = test: as above; details: genetic background: wild type; temperature: 30 C
[3] = genetic background: cdc34-1, temperature: 37 C
[4] = genetic background: cdc53-1, temperature: 37 C
[5] = genetic background: das1 deletion, temperature: 30 C
[6] = genetic background: das1 deletion, temperature: 37 C
[7] = genetic background: doa10 deletion, temperature: 30 C
[8] = genetic background: wild type, temperature: 30 C
[9] = genetic background: wild type, temperature: 37 C
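Further: PSI is a weighted mean of sequencing reads over stability bins, variants kept only with over 10 reads, mCherry proximal and sfGFP distal, peptide attached via GGGS linker.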

| Sequence | protein stability index (Saccharomyces cerevisiae [1]; [3]) | protein stability index (Saccharomyces cerevisiae [1]; [4]) | protein stability index (Saccharomyces cerevisiae [1]; [5]) | protein stability index (Saccharomyces cerevisiae [1]; [6]) | protein stability index (Saccharomyces cerevisiae [1]; [7]) | protein stability index (Saccharomyces cerevisiae [1]; [8]) | protein stability index (Saccharomyces cerevisiae [1]; [9]) | protein stability index (Saccharomyces cerevisiae [2]) |
| --- | --- | --- | --- | --- | --- | --- | --- | --- |
| VFFFNALFCFFC | 0.523 ± 0.039 | 0.51 ± 0.0085 | 0.535 ± 0.02 | 0.562 ± 0.0091 | 0.31138 ± 0.00022 | 0.291 ± 0.011 | 0.356 ± 0.0075 | 0.35 ± 0.0075 |
| PPTPYPRFIFSF | 0.688 ± 0.048 | 0.7541 ± 0.0012 | 0.647 ± 0.023 | 0.7672 ± 0.0047 | 0.331 ± 0.02 | 0.372 ± 0.028 | 0.601 ± 0.0037 | 0.459 ± 0.027 |
| MLIAISASAARF | 0.452 ± 0.037 | 0.5819 ± 0.0017 | 0.417 ± 0.027 | 0.501 ± 0.016 | 0.45 ± 0.02 | 0.44 ± 0.034 | 0.498 ± 0.0095 | 0.4184 ± 0.00049 |
| LQNCRVSVLLGW | 0.5443 ± 0.0023 | 0.616 ± 0.011 | 0.485 ± 0.019 | 0.6275 ± 0.0042 | 0.229 ± 0.0028 | 0.246 ± 0.036 | 0.4536 ± 0.0025 | 0.367 ± 0.033 |
| SVVRCWVLLGVA | 0.121 ± 0.047 | 0.157 ± 0.028 | 0.198 ± 0.013 | 0.303 ± 0.0057 | 0.135 ± 0.0021 | 0.164 ± 0.026 | 0.2377 ± 0.0011 | 0.276 ± 0.024 |
| VLRLLARRHAMV | 0.577 ± 0.036 | 0.6735 ± 0.002 | 0.614 ± 0.015 | 0.689 ± 0.013 | 0.148 ± 0.013 | 0.145 ± 0.028 | 0.251 ± 0.02 | 0.308 ± 0.017 |
| RNDCAYHVLQIV | 0.607 ± 0.016 | 0.722 ± 0.054 | 0.646 ± 0.015 | 0.7115 ± 0.0031 | 0.181 ± 0.0022 | 0.202 ± 0.035 | 0.381 ± 0.0042 | 0.228 ± 0.0084 |
| PVLPPPLLLCPC | 0.0283 ± 0.018 | 0.0268 ± 0.011 | 0.119 ± 0.023 | 0.11 ± 0.024 | 0.0972 ± 0.0096 | 0.15 ± 0.018 | 0.0932 ± 0.032 | 0.22801 ± 2.4e-05 |
| KNVFLIRGRKNC | 0.627 ± 0.054 | 0.689 ± 0.0093 | 0.638 ± 0.029 | 0.721 ± 0.018 | 0.154 ± 0.021 | 0.193 ± 0.014 | 0.41 ± 0.017 | 0.356 ± 0.098 |
| VFLFSLLIVFFP | 0.213 ± 0.0089 | 0.3 ± 0.0087 | 0.226 ± 0.029 | 0.385 ± 0.00051 | 0.1951 ± 0.0019 | 0.216 ± 0.028 | 0.3338 ± 0.0025 | 0.219 ± 0.075 |
| PPVPRLLPVLAP | 0.525 ± 0.038 | 0.503 ± 0.015 | 0.379 ± 0.025 | 0.546 ± 0.02 | 0.348 ± 0.0045 | 0.385 ± 0.025 | 0.506 ± 0.0077 | 0.474 ± 0.0057 |
| CFCLFVFFISSC | 0.2112 ± 0.00091 | 0.414 ± 0.015 | 0.223 ± 0.033 | 0.459 ± 0.015 | 0.19 ± 0.019 | 0.233 ± 0.019 | 0.397 ± 0.015 | 0.362 ± 0.057 |
| PLLPTPLTAPPP | 0.6705 ± 0.0022 | 0.73469 ± 0.00013 | 0.642 ± 0.031 | 0.7031 ± 0.006 | 0.659 ± 0.018 | 0.671 ± 0.023 | 0.6941 ± 0.0038 | 0.385 ± 0.0092 |
| VVLWTFLLEVSA | 0.0259 ± 0.011 | 0.0344 ± 0.0033 | 0.0674 ± 0.015 | 0.0951 ± 0.0053 | 0.0508 ± 0.019 | 0.0755 ± 0.033 | 0.101 ± 0.014 | 0.134 ± 0.034 |
| CKKATILRIKSM | 0.589 ± 0.049 | 0.715 ± 0.051 | 0.643 ± 0.014 | 0.691 ± 0.0021 | 0.17 ± 0.023 | 0.19 ± 0.031 | 0.298 ± 0.059 | 0.304 ± 0.013 |
| LMLISFLFLSLL | 0.487 ± 0.053 | 0.461 ± 0.021 | 0.448 ± 0.023 | 0.529 ± 0.031 | 0.568 ± 0.031 | 0.397 ± 0.023 | 0.48698 ± 5.5e-05 | 0.466 ± 0.056 |
| EKKNQTAYNKTV | 0.691 ± 0.035 | 0.71 ± 0.023 | 0.644 ± 0.013 | 0.707 ± 0.022 | 0.149 ± 0.021 | 0.176 ± 0.028 | 0.365 ± 0.0059 | 0.39 ± 0.018 |
| GGRSLYAILCAV | 0.3216 ± 0.0018 | 0.393 ± 0.018 | 0.277 ± 0.028 | 0.4669 ± 0.0034 | 0.166 ± 0.021 | 0.197 ± 0.027 | 0.261 ± 0.011 | 0.321 ± 0.03 |
| KKKKRVKIQKKN | 0.628 ± 0.059 | 0.707 ± 0.052 | 0.683 ± 0.041 | 0.689 ± 0.041 | 0.259 ± 0.04 | 0.244 ± 0.061 | 0.446 ± 0.009 | 0.404 ± 0.03 |
| FSLLTWPFVFLV | 0.126 ± 0.021 | 0.0782 ± 0.0059 | 0.252 ± 0.041 | 0.346 ± 0.037 | 0.0816 ± 0.015 | 0.0575 ± 0.0078 | 0.0613 ± 0.011 | 0.08711 ± 0.00051 |
